Data as given in patent US20260250378A1.

Legend:
[1] = target: T1, purified fragment of human CNX containing Amino acids 1-481 fused to human FC region (FC-CNX) (human) (UniProt P27824); assay: BLI (Octet), scFv on penta-His sensor, FC-CNX 90, 30, 10, 3.3 nM
T1 sequence (looked up): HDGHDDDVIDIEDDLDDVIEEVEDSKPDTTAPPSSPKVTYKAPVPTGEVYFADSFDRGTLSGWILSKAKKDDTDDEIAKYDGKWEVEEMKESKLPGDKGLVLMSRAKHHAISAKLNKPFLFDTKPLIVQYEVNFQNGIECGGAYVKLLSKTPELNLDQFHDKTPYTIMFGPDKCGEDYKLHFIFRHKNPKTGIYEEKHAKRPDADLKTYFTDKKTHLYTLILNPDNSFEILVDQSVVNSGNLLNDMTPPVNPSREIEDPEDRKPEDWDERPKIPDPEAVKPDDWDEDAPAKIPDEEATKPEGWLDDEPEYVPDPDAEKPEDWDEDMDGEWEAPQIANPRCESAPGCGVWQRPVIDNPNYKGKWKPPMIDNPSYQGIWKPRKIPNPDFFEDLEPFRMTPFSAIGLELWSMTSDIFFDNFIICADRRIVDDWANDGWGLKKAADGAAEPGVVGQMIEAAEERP

[2] = target: T1, purified fragment of human CNX containing Amino acids 1-481 fused to human FC region (FC-CNX) (human); assay: BLI (Octet), scFv on penta-His sensor, FC-CNX 90, 30, 10, 3.3 nM; printed without the letter E
[3] = target: T1, purified fragment of human CNX containing Amino acids 1-481 fused to human FC region (FC-CNX) (human); assay: BLI (Octet), scFv on penta-His sensor, FC-CNX 90, 30, 10, 3.3 nM; same value in the inset box of the Fitting View (Full X^2 0.108, Full R^2 0.9955)

B1: scFv clone 8 (C008) (scFv, part only; not given: His and myc tags, phage protein, not shown: another chain or arm of the molecule; large carriers; small tags and cut ends)
scFv: QVQLVQSGGGVVQPGRSLRLSCAASGFTVSSNYMSWVRQAPGKGLEWVSVIYSGGSTYYADSVKGRFTISRDNSKNTLYLQMNSLRAEDTAVYYCARGSRAVAGAFDYWGQGTLVTVSSGGGGSGGGGSGGGGSYSELTQDPAVSVALGQTVRITCQGDSLRTYYANWYQQKPGQAPVLVMYAKNHRPSGIPDRFSGSSSGNTASLTITGAQAEDEADYYCGSRDSSGNHPVFGGGTKVTVL
koff [1]: 0.000149 s⁻¹ | kon [2]: 1.14e+06 M⁻¹ s⁻¹ | Kd [3]: 131 pM
